1 molecule from US20090074766A1, “Methods of inhibiting HIV-2 infection” (priority 2007, published 2009) can be followed below.

Several values for one entry are separate records, joined by “and”; a condition that tells them apart may be missing. Equal values may be shown once.

One data set deals with R5 HIV-2 A2270. Put plainly: Inhibition of replication in PBMC cultures, RT activity readout: HIV-2 A2270. Format: cell-based. The method, then:
(§1) Viruses: All virus isolates were grown and titered exclusively in stimulated PBMC as described previously. […] The HIV-2 isolates used in this study have been previously described (Owen, S. M., Ellenberger, D., Rayfield, M., Wiktor, S., Michel, P., Grieco, M. H., Gao, F., Hahn, B. H., and Lai, R. B. 1998. Genetically Divergent Strains of Human Immunodeficiency Virus Type 2 Use Multiple Coreceptors for Entry. J Virol 72:5425-5432) and were obtained from the NIH AIDS Research and Reference Reagent Program.
(§2) PA14 (Lot # DF-021204) was produced for reagent use in the Research & Development laboratories of Progenics Pharmaceuticals Inc.
(§3) Inhibition of HIV-1 and HIV-2 replication in PBMC cultures: PBMC were isolated from 34 healthy blood donors with Ficoll-Hypaque (all media from Cellgro, Herndon, Va.) and depleted of CD8+ cells using RosetteSep CD8 depletion cocktail (StemCell Technologies) according to the manufacturer's instructions. Equal numbers of cells from each donor were then separately stimulated with 5 ug phytohemagglutinin/ml (Sigma, St. Louis, Mo.) or with surface-immobilized anti-CD3 antibody OKT3 in RPMI 1640 medium containing 10% fetal calf serum, 100 Units of interleukin-2/ml (NIH AIDS Research and Reference Reagent Program), glutamine, and antibiotics (PBMC culture medium) as previously described. After 72 hours, equal numbers of PBMC stimulated by one of these two methods from each donor were combined for use in infection assays as follows. […] The virus inoculum was adjusted to 400 to 2,000 times the TCID50 per ml in PBMC culture medium, and a 50-ul aliquot was added to each culture. The inhibitory doses refer to the concentrations of the agents present at this point in the culture, when virus, cells, and inhibitors were all present at their final concentrations. Reverse Transcriptase (RT) activity was measured on Day 7 post infection (pi) for HIV-1 and Day 10 pi for HIV-2 by the Reverse Transcriptase Assay, Colorimetric kit, #11 468 120 910, Roche (Switzerland) according to the manufacturer's instructions with the following exception: neither ultracentrifugation nor PEG precipitation of the culture supernatants was performed before viral lysis.
(§4) The inhibition data were analyzed using GraphPad Prism software (GraphPad Software, San Diego, Calif.). A 4-parameter logistic fit was used calculate the concentration of inhibitor that afforded a 50% and a 90% reduction in RT activity. […] The % inhibitions where best-fit curve reached a top plateau, also as calculated by GraphPad Prism software, are reported as well as maximum percent inhibition (MPI). […] Inhibition curves with a poor sigmoid fit (R^2<0.7) were excluded from data analysis.

The next data set deals with R5 HIV-2 SLRHC. The data set can be described thus: Inhibition of replication in PBMC cultures, RT activity readout: HIV-2 SLRHC. In kind it is cell-based. How it is done: as §1, §2, §3, §4
Data set [1] in a line: Phase 1b clinical trial: safety, immunogenicity, RANTES, coreceptor tropism (Trofile). In kind it is in vivo, human. The source says: All patients were screened prior to the study for the presence of virus that utilizes only CCR5 as the entry coreceptor., i.e., CCR5-tropic virus.
Where no CXCR4-using clones are identified in a pre-dose sample from a subject, the on-treatment CXCR4-using virus can be identified as being phylogenetically very distant from the CCR5 tropic baseline virus; in such a case, the emergence of a pre-dose or pre-treatment CXCR4-using virus, i.e., one that is present at baseline, but is not detected, may likely explain the D/M tropism in the subject, as opposed to a tropism switch.

B1: PRO 140: humanized IgG4,κ anti-CCR5 monoclonal antibody, humanized version of murine mAb PA14 (antibody, chains of the INN, looked up, V domains shown)
VH: EVQLVESGGGLVKPGGSLRLSCAASGYTFSNYWIGWVRQAPGKGLEWIGDIYPGGNYIRNNEKFKDKTTLSADTSKNTAYLQMNSLKTEDTAVYYCGSSFGSNYVFAWFTYWGQGTLVTVSS
VL: DIVMTQSPLSLPVTPGEPASISCRSSQRLLSSYGHTYLHWYLQKPGQSPQLLIYEVSNRFSGVPDRFSGSGSGTDFTLKISRVEAEDVGVYYCSQSTHVPLTFGQGTKVEIK
Consider B1, for which, in the data set on R5 HIV-2 A2270 (HIV-2 A2270, R5), the “EC50 (median)” value was 0.12 µg/mL and the “EC90 (median)” value amounted to 3.5 µg/mL. In the data set with R5 HIV-2 A2270 (R5 HIV-2 A2270, individual assays (Source)), the “MPI (maximum percent inhibition)” value is 103% and 101% and 97%. Further, the “MPI, Median” value with R5 HIV-2 A2270 (R5 HIV-2 A2270, median of assays) is 101%. Besides, in the data set on R5 HIV-2 SLRHC (HIV-2 SLRHC, R5), the “EC50 (median)” value turned out to be 0.57 µg/mL and the “EC90 (median)” value came to 21 µg/mL. The “MPI (maximum percent inhibition)” value in the data set with R5 HIV-2 SLRHC (R5 HIV-2 SLRHC, individual assays (Source)) is 104% and 135% and 127% and 150%. The “MPI, Median” value in the data set with R5 HIV-2 SLRHC (R5 HIV-2 SLRHC, median of assays) was found to be 135%. Besides, the “subjects with dual/mixed tropism result post-treatment” value in data set [1] (PRO 140 subjects (0.5 mg/kg group, day 8 only)) is 1/30. Further, in data set [1] (Phase 1b), the dose-limiting toxicity result is reported as “No dose-limiting toxicity or obvious pattern of toxicity”, the “plasma RANTES (CCL5) chemokine levels” value was “No change in plasma RANTES (CCL5) chemokine levels” and the “treatment related SAEs” value is listed as “No treatment related SAEs”. The tolerability result in data set [1] (all study groups (0.5, 2.0, 5.0 mg/kg)) is given as “well-tolerated”.
